Laboratory results published in article PMC2906495, “A kinesin motor in a force-producing conformation” (BMC Structural Biology, 2010).

B1: GST/NcdT436S (GST-…-K210-K700) (domain or fragment)
chain: SDLVPRGSPVKTKYEKQTEDMGELESMPQQLEETQNKLIETESSLKNTQSDNECLQRQVKQHTAKIETITSTLGRTKEELSELQAIHEKVKTEHAALSTEVVHLRQRTEELLRCNEQQAAELETCKEQLFQSNMERKELHNTVMDLRGNIRVFCRIRPPLESEENRMCCTWTYHDESTVELQSIDAQAKSKMGQQIFSFDQVFHPLSSQSDIFEMVSPLIQSALDGYNICIFAYGQSGSGKTYTMDGVPESVGVIPRTVDLLFDSIRGYRNLGWEYEIKATFLEIYNEVLYDLLSNEQKDMEIRMAKNNKNDIYVSNITEETVLDPNHLRHLMHTAKMNRATASTAGNERSSRSHAVTKLELIGRHAEKQEISVGSINLVDLAGSESPKTSTRMTETKNINRSLSELTNVILALLQKQDHIPYRNSKLTHLLMPSLGGNSKTLMFINVSPFQDCFQESVKSLRFAASVNSCKMTKAKRNRYLNNSVANSSTQSNNSGSFDK
B2: wild-type GST/Ncd (GST/MC1) (domain or fragment)
chain: KTKYEKQTEDMGELESMPQQLEETQNKLIETESSLKNTQSDNECLQRQVKQHTAKIETITSTLGRTKEELSELQAIHEKVKTEHAALSTEVVHLRQRTEELLRCNEQQAAELETCKEQLFQSNMERKELHNTVMDLRGNIRVFCRIRPPLESEENRMCCTWTYHDESTVELQSIDAQAKSKMGQQIFSFDQVFHPLSSQSDIFEMVSPLIQSALDGYNICIFAYGQTGSGKTYTMDGVPESVGVIPRTVDLLFDSIRGYRNLGWEYEIKATFLEIYNEVLYDLLSNEQKDMEIRMAKNNKNDIYVSNITEETVLDPNHLRHLMHTAKMNRATASTAGNERSSRSHAVTKLELIGRHAEKQEISVGSINLVDLAGSESPKTSTRMTETKNINRSLSELTNVILALLQKQDHIPYRNSKLTHLLMPSLGGNSKTLMFINVSPFQDCFQESVKSLRFAASVNSCKMTKAKRNRYLNNSVANSSTQSNNSGSFDK
B3: NcdT436S, nonfusion protein for crystallization (MGSM-H293-K700) (domain or fragment, Drosophila)
chain: MGSMHAALSTEVVHLRQRTEELLRCNEQQAAELETCKEQLFQSNMERKELHNTVMDLRGNIRVFCRIRPPLESEENRMCCTWTYHDESTVELQSIDAQAKSKMGQQIFSFDQVFHPLSSQSDIFEMVSPLIQSALDGYNICIFAYGQSGSGKTYTMDGVPESVGVIPRTVDLLFDSIRGYRNLGWEYEIKATFLEIYNEVLYDLLSNEQKDMEIRMAKNNKNDIYVSNITEETVLDPNHLRHLMHTAKMNRATASTAGNERSSRSHAVTKLELIGRHAEKQEISVGSINLVDLAGSESPKTSTRMTETKNINRSLSELTNVILALLQKQDHIPYRNSKLTHLLMPSLGGNSKTLMFINVSPFQDCFQESVKSLRFAASVNSCKMTKAKRNRYLNNSVANSSTQSNNSGSFDK
notes: N-terminal leader of the construct MGSM-H293-K700; kinesin-14 Ncd of Drosophila, residues H293-K700 (part of the coiled-coil stalk, neck, motor domain and C-terminus), with T436S in the P-loop; The printed mass of 93,692 Da fits two chains (dimer); In the crystal, chain A is visible from M292 to K671 and chain B from G290 to K674; also called kinesin-14 Ncd T436S; source: E. coli BL21(DE3)pLysS …

Assays:
[1] = target: microtubules (polymerized tubulin)
[2] = target: the molecule itself; experiment: crystal structure; NcdT436S at 4.5 mg/ml incubated with 4 mM MgCl2 and 4 mM ATP, hanging drops at room temperature, 11.5% PEG 8K, 25 mM sodium-phosphate pH 6.26, 0.5 M NaCl; molecular replacement with PDB 1N6M; two chains (A, B) joined by the coiled-coil stalk

Binder	K (m,MTs) of the microtubule-stimulated steady-state ATPase (0.5 μM motor, 1 mM MgATP, 0-2.5 μM microtubules) [1]	binding result [2]
B1	1.3 µM	
B2	1.6 µM	
B3		binds
